# Legend:
# [1] = target: CCR1, 3 and 5-expressing cells (chemokine receptor-expressing cells) (human); test: blood of a healthy donor passed through a column of biotinylated RANTES coupled streptavidin matrix; flow cytometry before and after
# CCR7 (human) = CCR7 (human) (UniProt P32248); test: cell-based or functional assay
# hCXCR1 (human) = hCXCR1 (human) (UniProt P25024); test: cell-based or functional assay
# Sequence of hCXCR1 (human) (P25024 whole entry): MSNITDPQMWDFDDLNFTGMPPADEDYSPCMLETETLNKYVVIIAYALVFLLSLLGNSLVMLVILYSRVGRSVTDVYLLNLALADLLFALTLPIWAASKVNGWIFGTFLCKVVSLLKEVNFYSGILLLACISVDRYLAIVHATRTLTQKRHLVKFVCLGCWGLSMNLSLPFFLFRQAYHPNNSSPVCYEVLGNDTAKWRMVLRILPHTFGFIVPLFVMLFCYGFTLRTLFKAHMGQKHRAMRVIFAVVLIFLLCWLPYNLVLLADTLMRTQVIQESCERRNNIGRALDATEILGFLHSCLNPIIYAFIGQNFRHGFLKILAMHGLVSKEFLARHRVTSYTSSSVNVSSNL
# Sequence of CCR7 (human) (P32248 25-378): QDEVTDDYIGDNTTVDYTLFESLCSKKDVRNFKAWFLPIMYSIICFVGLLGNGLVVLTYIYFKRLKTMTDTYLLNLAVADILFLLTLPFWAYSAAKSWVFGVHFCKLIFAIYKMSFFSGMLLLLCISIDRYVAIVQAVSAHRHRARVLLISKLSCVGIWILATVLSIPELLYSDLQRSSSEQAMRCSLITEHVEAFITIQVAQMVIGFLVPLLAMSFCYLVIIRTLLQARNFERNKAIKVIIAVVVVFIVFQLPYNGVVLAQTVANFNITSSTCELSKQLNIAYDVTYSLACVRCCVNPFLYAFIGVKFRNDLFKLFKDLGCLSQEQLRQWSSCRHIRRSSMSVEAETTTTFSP
# Sequence of biotinRANTES (CCL5), RANTES derivatised at Lys(67) with Biotin (P13501 other isoform, or with tags, fused parts or gaps): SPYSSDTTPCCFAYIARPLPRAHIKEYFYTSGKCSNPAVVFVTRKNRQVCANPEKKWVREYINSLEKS
"EC50, agonist activity in an Aequorin assay (hCXCR1 (human))",Substance,further results
–,"biotinRANTES (CCL5), RANTES derivatised at Lys(67) with Biotin (from UniProt P13501 24-91) (ligand)",reduction of chemokine receptor-expressing cells by the column [1]: 20%
–,recombinant native MIP-3β (from UniProt Q99731 22-98) (ligand),"EC50, agonist activity in an Aequorin assay (CCR7 (human)): 1.6 nM"
4.2 nM,recombinant native IL-8 (from UniProt P10145 28-99) (ligand),–
6.1 nM,"biotinIL-8 (6-78), IL-8 (6-78) derivatised at Lys(78) with PEG-Biotin (from UniProt P10145 28-99) (ligand)",–
